Patent publication US20170138958A1

Columns and labels:
[1] = target: Fr. 3 antigen (C-terminal region, zinc finger region, positions 294-449 of WT1) (human) (UniProt P19544); assay: antigen inhibition ELISA on immobilised Fr. 3; antibody whose binding is inhibited: C-19 (PoAb)
[2] = target: Fr. 3 antigen (C-terminal region, zinc finger region, positions 294-449 of WT1) (human) (UniProt P19544); assay: antigen inhibition ELISA on immobilised Fr. 3; antibody whose binding is inhibited: serum sample No. 3
[3] = target: Fr. 3 antigen (C-terminal region, zinc finger region, positions 294-449 of WT1) (human) (UniProt P19544); assay: antigen inhibition ELISA on immobilised Fr. 3; antibody whose binding is inhibited: serum sample No. 7
[4] = target: Fr. 3 antigen (C-terminal region, zinc finger region, positions 294-449 of WT1) (human) (UniProt P19544); assay: antigen inhibition ELISA on immobilised Fr. 3; antibody whose binding is inhibited: serum sample No. 9

Chain of UniProt P19544 (P19544 294-449): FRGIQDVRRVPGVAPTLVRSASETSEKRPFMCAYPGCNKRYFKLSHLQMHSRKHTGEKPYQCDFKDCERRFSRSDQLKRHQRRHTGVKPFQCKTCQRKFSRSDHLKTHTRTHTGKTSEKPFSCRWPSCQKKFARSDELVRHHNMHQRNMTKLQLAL

| percent inhibition [1] | percent inhibition [2] | percent inhibition [3] | percent inhibition [4] | Substance |
| --- | --- | --- | --- | --- |
| 50% | 70% | 20% |  | Fr. 2 antigen (hWT1 Fr. 2, central region, positions 181-324 of WT1) (from UniProt P19544 181-324) |
| 25% |  | 10% | 40% | Fr. 1 antigen (recombinant hWT1 Fr. 1, N-terminal region, positions 1-182 of WT1) (from UniProt P19544 1-182) |
